Laboratory results published in PMC3807968 (2014).
[ ]: non-standard residue; d: D form. The star is where a group is joined. Butanoyl(4-Ph) = O=C(CCCc1ccccc1)*; Butanoyl(4-ethynyl) = C#CCCCC(=O)*

Molecular target: T1, ligand 5 on uncrosslinked micelles, 5% loading (5-UXL) (not fully specified; also: uncrosslinked micelle)
T1 chain: {Butanoyl(4-Ph)}-H[dF]RWGK(Butanoyl(4-ethynyl))-NH2
Test: Eu-NDP-α-MSH time-resolved fluorescence whole-cell competition binding

B1: Melanocortin 1 receptor (protein)
chain: MAVQGSQRRLLGSLNSTPTAIPQLGLAANQTGARCLEVSISDGLFLSLGLVSLVENALVVATIAKNRNLHSPMYCFICCLALSDLLVSGSNVLETAVILLLEAGALVARAAVLQQLDNVIDVITCSSMLSSLCFLGAIAVDRYISIFYALRYHSIVTLPRARRAVAAIWVASVVFSTLFIAYYDHVAVLLCLVVFFLAMLVLMAVLYVHMLARACQHAQGIARLHKRQRPVHQGFGLKGAVTLTILLGIFFLCWGPFFLHLTLIVLCPEHPTCGCIFKNFNLFLALIICNAIIDPLIYAFHSQELRRTLKEVLTCSW
Question: B1 was tested. Which Ki did it give?
Answer: Its Ki is 12 nM.
